The source of these data is article PMC8717551 (The Journal of Biological Chemistry, 2021).

The data set “crystal structure” deals with the molecule itself. The data set can be described thus: crystal structure.
Data set [1] concerns the target T1, Sa2YefM in heterohexamer;Sa2YoeB in heterohexamer (Staphylococcus aureus …, UniProt Q2FVF7;Q2FVF8 1-85;1-88, |).
T1 sequence 1: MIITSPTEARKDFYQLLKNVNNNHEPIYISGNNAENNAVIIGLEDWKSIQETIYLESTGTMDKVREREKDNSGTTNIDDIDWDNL
T1 sequence 2: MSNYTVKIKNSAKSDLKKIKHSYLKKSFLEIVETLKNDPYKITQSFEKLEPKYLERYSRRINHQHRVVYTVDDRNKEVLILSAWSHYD
The data set can be described thus: ITC. On the technique in general: In ITC the heat of successive injections is recorded.

B1: Sa2YefM antitoxin (natural protein)
chain: MIITSPTEARKDFYQLLKNVNNNHEPIYISGNNAENNAVIIGLEDWKSIQETIYLESTGTMDKVREREKDNSGTTNIDDIDWDNL
The stoichiometry N is the number of molecules, sites or subunits per partner or assembly. For the molecule B1, in the data set “crystal structure”, the “stoichiometry N” value turned out to be 2.

B2: promoter mutant1 (core GTAC mutated) (dsDNA)
DNA 1: TTGACTGCATCAAGTGCTGCAGCTAT
DNA 2: ATAGCTGCAGCACTTGATGCAGTCAA
B2: in data set [1], the binding result is “no binding”.

B3: promoter mutant2 (flanking mutated) (dsDNA)
DNA 1: TTGTTGTACAAAAGTTTGTACAATAT
DNA 2: ATATTGTACAAACTTTTGTACAACAA
For B3, in data set [1], the binding result is listed as “no binding”.
